According to patent US20070202045A1 (published 2007):
Bridges are numbered along the chain shown (N, C = ends). Where no end group is shown, it is not given here.

B1: SA07 (peptide)
peptide: QGLIGDICLPRWGCLWGDSV-NH2
modifications: disulfide 8-14 (inferred)
notes: synthetic; disulfide oxidised; printed ...GDSV here

Each binder was assayed against T1, rabbit albumin (rabbit, UniProt P49065 25-608) (assay: SA08b competition ELISA).
T1 construct: bought (Sigma); also called rabbit SA; BuSA
T1 sequence (P49065 25-608 limits assumed): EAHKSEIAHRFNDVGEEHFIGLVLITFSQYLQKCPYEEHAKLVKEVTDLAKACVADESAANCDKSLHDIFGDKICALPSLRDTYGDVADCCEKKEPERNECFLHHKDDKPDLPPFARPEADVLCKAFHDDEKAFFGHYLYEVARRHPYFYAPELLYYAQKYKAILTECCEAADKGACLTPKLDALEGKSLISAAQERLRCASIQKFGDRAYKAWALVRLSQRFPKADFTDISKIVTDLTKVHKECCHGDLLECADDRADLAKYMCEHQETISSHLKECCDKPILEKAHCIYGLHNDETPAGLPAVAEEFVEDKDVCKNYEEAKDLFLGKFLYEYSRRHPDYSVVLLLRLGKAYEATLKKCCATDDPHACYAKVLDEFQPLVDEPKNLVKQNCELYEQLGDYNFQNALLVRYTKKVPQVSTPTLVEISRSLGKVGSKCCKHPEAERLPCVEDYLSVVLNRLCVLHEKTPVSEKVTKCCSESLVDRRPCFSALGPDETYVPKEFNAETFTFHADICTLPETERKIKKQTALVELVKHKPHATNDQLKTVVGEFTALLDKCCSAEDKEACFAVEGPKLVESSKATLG

Binder | IC50 [nM]
MEDICLPRWGCLWED-NH2 (disulfide 5-11 (inferred), synthetic; disulfide oxidised) [SA05] | 804
Ac-MEDICLPRWGCLWED-NH2 (disulfide 5-11 (inferred), synthetic; disulfide oxidised) [SA12] | 1760
Ac-MEDICLPRWGCLWEDD-NH2 (disulfide 5-11 (inferred), synthetic; disulfide oxidised) [SA11] | 1210
B1 | 30
Ac-EDICLPRWGCLWEDD-NH2 (disulfide 4-10 (inferred), synthetic; disulfide oxidised) [SA09] | 1690
DICLPRWGCLW-NH2 (disulfide 3-9 (inferred), synthetic; disulfide oxidised) [SA04] | 8540
QRLMEDICLPRWGCLWEDDF-NH2 (disulfide 8-14, synthetic; disulfide oxidised) [SA06] | 128
Ac-RLMEDICLPRWGCLWEDD-NH2 (disulfide 7-13 (inferred), synthetic; disulfide oxidised) [SA10] | 86
Ac-RLMEDICLARWGCLWEDD-NH2 (disulfide 7-13 (inferred), synthetic; disulfide oxidised) [SA13] | 3200
Ac-QGLIGDICLPRWGCLWGDSVK-NH2 (disulfide 8-14 (inferred), synthetic; disulfide oxidised) [SA08] | 63

What follows are binders tested against T2, mouse albumin (mouse, UniProt P07724 25-608) (assay: SA08b competition ELISA).
T2 construct: bought (Sigma); also called MSA; MuSA
T2 sequence (P07724 25-608 limits assumed): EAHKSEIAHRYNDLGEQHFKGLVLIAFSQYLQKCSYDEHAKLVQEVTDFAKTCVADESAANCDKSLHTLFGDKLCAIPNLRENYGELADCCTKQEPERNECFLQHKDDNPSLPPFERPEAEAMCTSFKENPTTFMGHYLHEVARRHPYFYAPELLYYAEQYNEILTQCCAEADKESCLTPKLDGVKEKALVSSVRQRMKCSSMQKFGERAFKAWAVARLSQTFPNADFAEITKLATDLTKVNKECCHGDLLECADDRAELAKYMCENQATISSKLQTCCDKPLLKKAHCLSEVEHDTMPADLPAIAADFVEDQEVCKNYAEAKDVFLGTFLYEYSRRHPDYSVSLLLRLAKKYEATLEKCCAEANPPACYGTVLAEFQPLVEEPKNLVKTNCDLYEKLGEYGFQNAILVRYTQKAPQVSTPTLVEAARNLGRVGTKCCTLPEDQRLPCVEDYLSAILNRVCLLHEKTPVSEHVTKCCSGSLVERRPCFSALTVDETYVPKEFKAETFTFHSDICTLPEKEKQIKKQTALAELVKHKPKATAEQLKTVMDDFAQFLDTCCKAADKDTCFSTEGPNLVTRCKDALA

Binder | IC50 [nM]
MEDICLPRWGCLWED-NH2 (disulfide 5-11 (inferred), synthetic; disulfide oxidised) [SA05] | 6
Ac-MEDICLPRWGCLWED-NH2 (disulfide 5-11 (inferred), synthetic; disulfide oxidised) [SA12] | 13
Ac-MEDICLPRWGCLWEDD-NH2 (disulfide 5-11 (inferred), synthetic; disulfide oxidised) [SA11] | 17
B1 | 6
Ac-EDICLPRWGCLWEDD-NH2 (disulfide 4-10 (inferred), synthetic; disulfide oxidised) [SA09] | 6
DICLPRWGCLW-NH2 (disulfide 3-9 (inferred), synthetic; disulfide oxidised) [SA04] | 40
QRLMEDICLPRWGCLWEDDF-NH2 (disulfide 8-14, synthetic; disulfide oxidised) [SA06] | 8
Ac-RLMEDICLARWGCLWEDD-NH2 (disulfide 7-13 (inferred), synthetic; disulfide oxidised) [SA13] | 188
Ac-QGLIGDICLPRWGCLWGDSVK-NH2 (disulfide 8-14 (inferred), synthetic; disulfide oxidised) [SA08] | 10

The binders below were run against T3, rat albumin (rat, UniProt P02770 25-608) (assay: SA08b competition ELISA).
T3 construct: bought (Sigma); also called rat SA; RSA
T3 sequence (P02770 25-608 limits assumed): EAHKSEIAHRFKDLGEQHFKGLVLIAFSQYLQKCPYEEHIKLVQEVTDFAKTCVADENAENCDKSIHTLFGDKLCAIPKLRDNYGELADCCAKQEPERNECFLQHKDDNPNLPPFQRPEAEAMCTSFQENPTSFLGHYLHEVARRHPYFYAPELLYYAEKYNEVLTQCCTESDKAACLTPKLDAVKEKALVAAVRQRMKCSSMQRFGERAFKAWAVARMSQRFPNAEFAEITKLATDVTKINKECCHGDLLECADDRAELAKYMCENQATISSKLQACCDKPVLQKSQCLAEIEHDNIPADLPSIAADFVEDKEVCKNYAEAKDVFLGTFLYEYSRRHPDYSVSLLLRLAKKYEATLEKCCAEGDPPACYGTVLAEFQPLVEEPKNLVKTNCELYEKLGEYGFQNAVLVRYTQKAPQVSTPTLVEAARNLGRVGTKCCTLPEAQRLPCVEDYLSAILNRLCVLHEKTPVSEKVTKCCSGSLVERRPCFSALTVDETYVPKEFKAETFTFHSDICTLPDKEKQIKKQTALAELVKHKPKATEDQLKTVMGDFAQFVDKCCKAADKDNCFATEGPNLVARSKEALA

Binder | IC50 [nM]
MEDICLPRWGCLWED-NH2 (disulfide 5-11 (inferred), synthetic; disulfide oxidised) [SA05] | 161
Ac-MEDICLPRWGCLWED-NH2 (disulfide 5-11 (inferred), synthetic; disulfide oxidised) [SA12] | 205
Ac-MEDICLPRWGCLWEDD-NH2 (disulfide 5-11 (inferred), synthetic; disulfide oxidised) [SA11] | 232
B1 | 35
Ac-EDICLPRWGCLWEDD-NH2 (disulfide 4-10 (inferred), synthetic; disulfide oxidised) [SA09] | 258
DICLPRWGCLW-NH2 (disulfide 3-9 (inferred), synthetic; disulfide oxidised) [SA04] | 787
QRLMEDICLPRWGCLWEDDF-NH2 (disulfide 8-14, synthetic; disulfide oxidised) [SA06] | 68
Ac-RLMEDICLPRWGCLWEDD-NH2 (disulfide 7-13 (inferred), synthetic; disulfide oxidised) [SA10] | 77
Ac-RLMEDICLARWGCLWEDD-NH2 (disulfide 7-13 (inferred), synthetic; disulfide oxidised) [SA13] | 2480
Ac-QGLIGDICLPRWGCLWGDSVK-NH2 (disulfide 8-14 (inferred), synthetic; disulfide oxidised) [SA08] | 68

Target: T1, rabbit albumin
Test: SA08b competition ELISA
Remark: another data set of the same source

Binder | IC50 [nM]
QRLMEDICLPRWGCLWEDDF-NH2 (disulfide 8-14, synthetic; disulfide oxidised) [SA06] | 128

Target: T2, mouse albumin
Test: SA08b competition ELISA
Remark: another data set of the same source

Binder | IC50 [nM]
QRLMEDICLPRWGCLWEDDF-NH2 (disulfide 8-14, synthetic; disulfide oxidised) [SA06] | 8

Target: T3, rat albumin
Test: SA08b competition ELISA
Remark: another data set of the same source

Binder | IC50 [nM]
QRLMEDICLPRWGCLWEDDF-NH2 (disulfide 8-14, synthetic; disulfide oxidised) [SA06] | 68

Each binder was assayed against T3, rat albumin (assay: phage ELISA).

Binder | binding result
DLCLRDWGCLW (not fully specified (C-terminus); cysteine pairing not given here) [RC] | binds

The binders below were run against T1, rabbit albumin (assay: SPR (BIAcore), albumin immobilized).
Excerpt: (§1) Binding affinities between SA peptides and album were obtained using a BIAcore 3000 (BIAcore, Inc., Piscataway, N.J.). Albumin was captured in a CM5 chip using amine coupling at approximately 5000 resonance units (RU).
(§2) The signal from an injection passing over an uncoupled cell was subtracted from that of an immobilized cell to generate sensongrams corresponding to the amount of peptide bound as a function of time. The running buffer, PBS containing 0.05% TWEEN-20T, was used for all sample dilutions. BIAcore kinetic evaluation software (v 3.1) was used to determine the dissociation constant (Kd) from the association and dissociation rates, using a one to one binding model.

Binder | Kd [nM]
GEWWEDICLPRWGCLWEEED-NH2 (disulfide 8-14 (inferred), synthetic) [SA15] | 65
QRLMEDICLPRWGCLWEDDF-NH2 (disulfide 8-14, synthetic; disulfide oxidised) [SA06] | 143
Ac-RLIEDICLPRWGCLWEDD-NH2 (disulfide 7-13 (inferred), synthetic; disulfide oxidised) [SA21] | 320
Ac-QGLIGDICLPRWGCLWGDSVK-NH2 (disulfide 8-14 (inferred), synthetic; disulfide oxidised) [SA08] | 108

Each binder was assayed against T4, human albumin (human, UniProt P02768 25-609) (assay: SPR (BIAcore), albumin immobilized).
T4 construct: bought (Sigma); also called human SA; HuSA
Excerpt: as §1, §2

Binder | Kd [nM]
GEWWEDICLPRWGCLWEEED-NH2 (disulfide 8-14 (inferred), synthetic) [SA15] | 878
Ac-QGLIGDICLPRWGCLWGDSVK-NH2 (disulfide 8-14 (inferred), synthetic; disulfide oxidised) [SA08] | 858

What follows are binders tested against T3, rat albumin (assay: SPR (BIAcore), albumin immobilized).
Excerpt: as §1, §2

Binder | Kd [nM]
GEWWEDICLPRWGCLWEEED-NH2 (disulfide 8-14 (inferred), synthetic) [SA15] | 150
QRLMEDICLPRWGCLWEDDF-NH2 (disulfide 8-14, synthetic; disulfide oxidised) [SA06] | 229
Ac-QGLIGDICLPRWGCLWGDSVK-NH2 (disulfide 8-14 (inferred), synthetic; disulfide oxidised) [SA08] | 158

These binders were tested against T1, rabbit albumin (assay: SA08b peptide competition ELISA).

Binder | IC50 [nM]
GEWWEDICLPRWGCLWEEED-NH2 (disulfide 8-14 (inferred), synthetic) [SA15] | 13
QRLMEDICLPRWGCLWEDDF-NH2 (disulfide 8-14, synthetic; disulfide oxidised) [SA06] | 130
Ac-RLIEDICLPRWGCLWEDD-NH2 (disulfide 7-13 (inferred), synthetic; disulfide oxidised) [SA21] | 270

These binders were tested against T2, mouse albumin (assay: SA08b peptide competition ELISA).

Binder | IC50 [nM]
GEWWEDICLPRWGCLWEEED-NH2 (disulfide 8-14 (inferred), synthetic) [SA15] | 5
QRLMEDICLPRWGCLWEDDF-NH2 (disulfide 8-14, synthetic; disulfide oxidised) [SA06] | 6
Ac-RLIEDICLPRWGCLWEDD-NH2 (disulfide 7-13 (inferred), synthetic; disulfide oxidised) [SA21] | 7
Ac-QGLIGDICLPRWGCLWGDSVK-NH2 (disulfide 8-14 (inferred), synthetic; disulfide oxidised) [SA08] | 12

Target: T1, rabbit albumin
Test: SA08b competition ELISA
Remark: another data set of the same source

Binder | IC50 [nM]
Ac-RLIEDICLPRWGCL-NH2 (disulfide 7-13 (inferred), synthetic) [SA33] | 4310
Ac-IEDICLPRWGCLWE-NH2 (disulfide 5-11 (inferred), synthetic) [SA30] | 1800
DICLPRWGCL-NH2 (disulfide 3-9 (inferred), synthetic) [SA19] | 24500
Ac-EDICLPRWGCLWED-NH2 (disulfide 4-10 (inferred), synthetic) [SA25] | 2730
Ac-IEDICLPRWGCLWED-NH2 (disulfide 5-11 (inferred), synthetic) [SA24] | 1380
Ac-LIEDICLPRWGCLWED-NH2 (disulfide 6-12 (inferred), synthetic) [SA23] | 360
Ac-DICLPRWGCLWED-NH2 (disulfide 3-9 (inferred), synthetic) [SA26] | 3120
Ac-RLIEDICLPRWGCLW-NH2 (disulfide 7-13 (inferred), synthetic) [SA31] | 200
DICLPRWGCLW-NH2 (disulfide 3-9 (inferred), synthetic; disulfide oxidised) [SA04] | 8540
Ac-EDICLPRWGCLW-NH2 (disulfide 4-10 (inferred), synthetic) [SA32] | 2170
ICLPRWGCLW-NH2 (disulfide 2-8 (inferred), synthetic) [SA18] | 125000
Ac-DICLPRWGCL-NH2 (disulfide 3-9 (inferred), synthetic) [SA34] | 28200
Ac-RLIEDICLPRWGCLWEDD-NH2 (disulfide 7-13 (inferred), synthetic; disulfide oxidised) [SA21] | 270
Ac-ICLPRWGCLWED-NH2 (disulfide 2-8 (inferred), synthetic) [SA27] | 86700
Ac-RLIEDICLPRWGCLWE-NH2 (disulfide 7-13 (inferred), synthetic) [SA29] | 400
Ac-RLIEDICLPRWGCLWED-NH2 (disulfide 7-13 (inferred), synthetic) [SA22] | 430
Ac-QRLIEDICLPRWGCLWEDDF-NH2 (disulfide 8-14 (inferred), synthetic) [SA20] | 260

Target: T1, rabbit albumin
Test: SA08b competition ELISA
Remark: another data set of the same source

Binder | fold improvement of IC50 over the core sequence (SA34 and SA19) [fold]
Ac-RLIEDICLPRWGCL-NH2 (disulfide 7-13 (inferred), synthetic) [SA33] | ~6
Ac-DICLPRWGCLWED-NH2 (disulfide 3-9 (inferred), synthetic) [SA26] | ~8.6
Ac-RLIEDICLPRWGCLWED-NH2 (disulfide 7-13 (inferred), synthetic) [SA22] | 60
